Entries after “also recorded” stand apart in the source; their conditions may differ.
Experiments:
MMP-2 = test: ELISA for collagenase residues in blood, anti-MMP-2; type: in vivo, rat; settings: after treatment and the follow-up period, all animals
Experimental: The procedure was performed 2 times in the TCQ group, the first time with collagenase and after 2 minutes peritoneal washing with mitomycin C at the different concentrations to be tested was repeated. […] Blood was also collected from all the animals before sacrificing them, the blood was processed within the hour following its extraction to obtain plasma and to analyze, on one hand, the existence of the mutated KRAS oncogene (mutation in codon 12 of exon 1 expressed by DHD cells), and on the other hand the existence of collagenase traces or residues in blood after the peritoneal washes. A digital PCR was used for the KRAS oncogene localization study. For the collagenase trace study, the anonymized samples were sent to Lyposmol laboratories for the performance of specific anti-MMP-1 and anti-MMP-2 ELISAS.

[1] = system: peritoneal adhesions (polypropylene mesh); test: Peritoneal adhesion model group 1 (10 small polypropylene mesh pieces): mesh release; type: in vivo, rat
Source text: Intervention of 5 6-week old Wistar rats of a total of 10 rats belonging to a first group (Group 1). Prior inhalation anesthesia with Forane, the animal being shaved, and aseptic measures being implemented, a minimal opening is made in the skin and the abdominal wall to implant 10 small pieces of polypropylene mesh, five on each side of the midline. They are cut into small 0.5 cm^2 pieces previously wetted with pss (physiological saline solution (0.9% ClNa).
After that (two days later than the first intervention), intervention is performed on the remaining 5 Wistar rats of group 1, and identical follow-up of weight and wound progression, with the administration of analgesia for the next 72 hours.
Four months after the application of the intraperitoneal prostheses, the animals are operated on again for the phase final of the experiment. Before that blood is drawn. First, the experiments are performed on rats belonging to group 1. The study is randomized in pairs and single-blind (investigator). […] Next, the results obtained in each of the operated rats are collected: • 1. R13, 295 g: Dictation: “To the naked eye no meshes are found. At the mesentery and terminal ileum of the cecum there is an area that is folded over and apparently comprises small pieces of mesh. There are no adhesions to the closure of the abdominal wall. Non-traumatic entry.”

[2] = system: peritoneal carcinomatosis (DHD cells); test: Adjusting the dose of collagenase as co-adjuvant in rats with carcinomatosis; type: in vivo, rat; settings: 10 minutes, 37° C.
Experimental: In this sense, after the inoculation of DHD cells in all the animals, and therefore the induction of solid tumors in the peritoneum (peritoneal carcinomatosis), the optimum dose of collagenase in terms of safety for use thereof as a co-adjuvant for or enhancer of chemotherapy treatment with mitomycin C in various work groups was determined: • Control group: washed only with Ringer's lactate. The mesoderm readily separates and washing is non-hematic. Compact omentum. • Group 1: 370 U/mL of collagenase. Hematic washing liquid, destruction of the omentum and mesoderm. Tumor fragments in the washing liquid. • Group 2: 148 U/mL of collagenase. Slightly hematic washing liquid, readily separable omentum and mesoderm. Solid tumor fragments are observed in the washing liquid. • Group 3: 74 U/mL of collagenase. Non-hematic washing liquid, readily separable omentum and mesoderm. Few implants are observed in the washing liquid but the accessibility of the tumor implants in the mesoderm and omentum is absolute. • Group 4: 37 U/mL of collagenase. Non-hematic washing liquid, readily separable omentum and mesoderm. No tumor implants observed in the washing liquid, but they are seen to be completely exposed in both the mesoderm and omentum.
The surgical procedures during this phase consisted of a first method of peritoneal cancer induction in which DHD cells were injected into the peritoneum and 6-8 weeks were allowed to elapse until the checking for the existence of tumor masses in the peritoneum by means of abdominal palpation, and a second method of treatment in which, after giving the animals inhalation anesthesia, the abdominal cavity was exposed by means of a longitudinal incision of the abdomen, the peritoneal cavity filled with the collagenase solution at the different concentrations to be tested at 37° C.

peritoneal tissues = test: First tests of peritoneal washing with collagenase on mouse (fine-tuning); settings: for necropsy findings: mice
Experimental: Six 5-week old double knock-out female mice (LIPDKO), from which the lipocalin-2 gene (which affects neutrophil recruitment) and the ApoE gene (which makes it more probable for the mice to develop atherosclerosis) have been eliminated, were used. […] Each concentration was injected to 2 mice according to their weight.
Cells obtained from washing which grew in culture dishes as well as the morphology of the peritoneal tissues after washing at different concentrations were analyzed.
Once the enzyme dose was selected, the actuation time was determined in the same manner and on the same model by means of tests from 40, 30, 20, 10, and 5 minutes. Throughout this fine-tuning method, the washing liquid was collected and cultured in a complete medium to analyze the cells obtained; different organs of the animals were also collected at the same time to check for the existence at any time (concentration/time) of any organ damage and to check the condition of the peritoneal tissues.

Collagenase
collagenase residues in blood, MMP-2 ELISA (MMP-2): negative | mesh and adhesion release after washing (dictation) ([1]; 0.05% in PBS, 20 ml, 20 minutes, 37° C., single rats R11, R12, R17, R18, R19 in block order): one of the balls of hypochondrium loops breaks up with slight pulling and several pieces of mesh (3) are released; also recorded: mesh seen in the omentum is readily released with slight pulling. Another mesh in the suprapubic fat is dissected and released without damaging the fatty aggregate, 6 pieces of mesh being released with digital dissection and without bleeding; also recorded: One of the meshes contained in the ball of the terminal ileum separates completely with slight pulling; also recorded: Mesh separates from the hepatic omentum with slight pulling (there are two meshes, one of them is not readily separated successfully) | efficacy in extracting meshes ([1]; group 1, blind study randomized in pairs, 0.05%, PBS control 8%): 42% | washing liquid, omentum, mesoderm and tumor implants after washing ([2]; Group 1: 370 U/mL): Hematic washing liquid, destruction of the omentum and mesoderm. Tumor fragments in the washing liquid. | washing liquid, omentum, mesoderm and tumor implants after washing ([2]; Group 2: 148 U/mL): Slightly hematic washing liquid, readily separable omentum and mesoderm. Solid tumor fragments are observed in the washing liquid. | washing liquid, omentum, mesoderm and tumor implants after washing ([2]; Group 3: 74 U/mL): Non-hematic washing liquid, readily separable omentum and mesoderm. Few implants are observed in the washing liquid but the accessibility of the tumor implants in the mesoderm and omentum is absolute. | washing liquid, omentum, mesoderm and tumor implants after washing ([2]; Group 4: 37 U/mL): Non-hematic washing liquid, readily separable omentum and mesoderm. No tumor implants observed in the washing liquid, but they are seen to be completely exposed in both the mesoderm and omentum. | clinical observations half an hour after administration (peritoneal tissues; mice 5 and 6, highest doses of collagenase): lethargic, exhibited signs of pain and a very reduced response to handling; also recorded: the abdominal wall had become detached | mortality (peritoneal tissues; mice with the highest doses of collagenase): died within one hour | necropsy findings (peritoneal tissues; 17.5 U/mL and 8.75 U/mL (one mouse each line)): somewhat hematic abdominal wall that has experienced the least thinning; also recorded: abdominal wall with a normal appearance and color | necropsy findings (peritoneal tissues; 35 U/mL): very thin hematic abdominal wall that ruptures by itself | necropsy findings (peritoneal tissues; 87.5 U/mL): hematic, practically transparent abdominal wall that completely comes off the skin and ruptures by itself when touched | clinical observations half an hour after administration (peritoneal tissues; one mouse, 35 U/mL): responded well to handling but exhibited signs of pain

From patent publication US20220047687A1, “CHEMICAL SCALPEL” (FUNDACIÓN INSTITUTO DE INVESTIGACIÓN SANITARIA FUNDACIÓN …, priority 2019, published 2022)
